Patent US20110136733A1 (IPSEN PHARMA S A S, published 2011)
Where no end group is shown, it is not given here. [ ]: non-standard residue; d: D form. The star is where a group is joined. Psu = N-propylsuccinimide on the Cys sulfur (from N-propylmaleimide), CCCN1C(=O)CC(*)C1=O; Myristoyl = CCCCCCCCCCCCCC(=O)*; Ac6c = NC1(C(=O)O)CCCCC1; Nle = CCCC[C@H](N)C(=O)O; Orn = NCCC[C@H](N)C(=O)O; Ac5c = NC1(C(=O)O)CCCC1; Aib = CC(C)(N)C(=O)O

T1: human recombinant GIP receptor (human, UniProt P48546 22-466)
T1 construct: whole, on cells; Membranes of CHO-K1 cells expressing the receptor; also called hGIP receptor
T1 sequence (looked up): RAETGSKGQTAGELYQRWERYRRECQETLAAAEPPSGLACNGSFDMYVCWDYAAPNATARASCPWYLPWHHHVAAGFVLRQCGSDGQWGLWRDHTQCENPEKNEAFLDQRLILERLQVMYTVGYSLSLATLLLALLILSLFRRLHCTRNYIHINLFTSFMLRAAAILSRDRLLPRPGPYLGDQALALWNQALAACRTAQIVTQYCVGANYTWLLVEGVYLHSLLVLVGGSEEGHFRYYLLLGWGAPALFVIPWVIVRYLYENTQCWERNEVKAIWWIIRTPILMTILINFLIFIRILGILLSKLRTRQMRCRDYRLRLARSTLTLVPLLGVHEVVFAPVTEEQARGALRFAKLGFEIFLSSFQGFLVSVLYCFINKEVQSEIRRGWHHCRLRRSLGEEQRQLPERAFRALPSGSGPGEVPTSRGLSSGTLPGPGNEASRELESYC

B1: [Aib^2, A6c^7, Cys(Psu)^41]hGIP(1-42)-OH (peptide)
peptide: Y[Aib]EGTF[Ac6c]SDYSIAMDKIHQQDFVNWLLAQKGKKNDWKHNIC(Psu)Q-OH
notes: The synthesis text lists Fmoc-Ala-OH, not Aib, at the cycle for position 2

Biological target: T1, human recombinant GIP receptor
Assay: [125I]GIP competition, membranes of CHO-K1 cells expressing human GIP receptor

Binder	Ki
Y[Aib]EG[Aib]FISDYSIAMDKIHQQDFVNWLLAQKGKKNDWKHNITQ-OH [(Aib^2, 5)hGIP(1-42)-OH]	4.08 nM
YXEGTFISDYXIAXDKIHQQDFVNWLLAQK (Aib at 2; A5c at 11; A6c at 14; C-terminal amide) [(Aib^2, A5c^11, A6c^14)hGIP(1-30)-NH2]	0.15 nM
YXEGTFISDYXIAMDKIHQQDFVNWLLAQK (Aib at 2; A5c at 11; C-terminal amide) [(Aib^2, A5c^11)hGIP(1-30)-NH2]	0.09 nM
Y[Aib]EGTF[Ac6c]SDYSIAMDKIHQQDFVNWLLAQKC(Psu)KKNDWKHNITQ-OH [[Aib^2, A6c^7, Cys(Psu)^31]hGIP(1-42)-OH]	75.8 nM
Y[Aib]EGTF[Ac6c]SDYSIAMDKIHQQDFVNWLLAQKGKKNDWKHC(Psu)ITQ-OH [[Aib^2, A6c^7, Cys(Psu)^39]hGIP(1-42)-OH]	13.8 nM
Y[Aib]EGTF[Ac6c]SDYSIAMDKIHQQDFVNWLLAQKGC(Psu)KNDWKHNITQ-OH [[Aib^2, A6c^7, Cys(Psu)^32]hGIP(1-42)-OH]	2.59 nM
B1	63.6 nM
Y[Aib]EGTF[Ac6c]SDYSIAMDKIHQQDFVNWLLAQKGKKNDWC(Psu)HNITQ-OH [[Aib^2, A6c^7, Cys(Psu)^37]hGIP(1-42)-OH]	22.7 nM
Y[Aib]EGTF[Ac6c]SDYSIAMDKIHQQDFVNWLLAQKGKKNDC(Psu)KHNITQ-OH [[Aib^2, A6c^7, Cys(Psu)^36]hGIP(1-42)-OH]	635 nM
Y[Aib]EGTF[Ac6c]SDYSIAMDKIHQQDFVNWLLAQKGKKNC(Psu)WKHNITQ-OH [[Aib^2, A6c^7, Cys(Psu)^35]hGIP(1-42)-OH]	288 nM
Y[Aib]EGTF[Ac6c]SDYSIAMDKIHQQDFVNWLLAQKGKKNDWKHNC(Psu)TQ-OH [[Aib^2, A6c^7, Cys(Psu)^40]hGIP(1-42)-OH]	16 nM
Y[Aib]EGTF[Ac6c]SDYSIAMDKIHQQDFVNWLLAQKGKKC(Psu)DWKHNITQ-OH [[Aib^2, A6c^7, Cys(Psu)^34]hGIP(1-42)-OH]	356 nM
Y[Aib]EGTF[Ac6c]SDYSIAMDKIHQQDFVNWLLAQKGKC(Psu)NDWKHNITQ-OH [[Aib^2, A6c^7, Cys(Psu)^33]hGIP(1-42)-OH]	1.51 nM
Y[Aib]EGTF[Ac6c]SDYSIAMDKIHQQDFVNWLLAQKGKKNDWKC(Psu)NITQ-OH [[Aib^2, A6c^7, Cys(Psu)^38]hGIP(1-42)-OH]	5.05 nM
YXEGTFISDYSIAXDKIHQQDFVNWLLAQKGKKNDWKHNITQ (A5c at 2; Nle at 14; C-terminal free acid) [(A5c^2, Nle^14)hGIP(1-42)-OH]	15.9 nM
YAEGTFISDYXIAMDKIHQQDFVNWLLAQKGKKNDWKHNXTQ (D-Ala at 2; A5c at 11 and 40; C-terminal free acid, X stands for the non-natural residue) [(D-Ala^2, A5c^11,40)hGIP(1-42)-OH]	0.59 nM
YXEGTFXSDYSIAXDKIHQQDFVNWLLAQKGKKNDWKHNITQ (A5c at 2 and 7; A6c at 14; C-terminal free acid) [(A5c^2, 7, A6c^14)hGIP(1-42)-OH]	34.4 nM
YXEGTFISDYSIXXDKIHQQDFVNWLLAQKGKKNDWKHNITQ (Aib at 2 and 13; Nle at 14; C-terminal free acid) [(Aib^2, 13, Nle^14)hGIP(1-42)-OH]	0.05 nM
XAEGTFISDYSIXMDKIHQQDFVNWLLAQKGKKNDWKHNITQ (4Hppa (3-(4-hydroxyphenyl)propionic acid) at 1; Aib at 13; C-terminal free acid) [(4Hppa^1, Aib^13)hGIP(1-42)-OH]	2.25 nM
YAXGTFISDYXIAXDKIHQQDFVNWLLAQKGKKNDWKHNITQ (Tic at 3; A5c at 11; A6c at 14; C-terminal free acid) [(Tic^3, A5c^11, A6c^14)hGIP(1-42)-OH]	754 nM
YAXGTFISDYSIXXDKIHQQDFVNWLLAQKGKKNDWKHNITQ (Dhp at 3; Aib at 13; Nle at 14; C-terminal free acid) [(Dhp^3, Aib^13, Nle^14)hGIP(1-42)-OH]	727 nM
YAXGTFISDYSIXXDKIHQQDFVNWLLAQKGKKNDWKHNITQ (hPro at 3; Aib at 13; Nle at 14; C-terminal free acid) [(hPro^3, Aib^13, Nle^14)hGIP(1-42)-OH]	330 nM
YXEGTFISDYXIAXDKIHQQDFVNWLLAQKGKKNDWKHNITQ (Aib at 2 and 11; A6c at 14; C-terminal free acid) [(Aib^2, 11, A6c^14)hGIP(1-42)-OH]	0.73 nM
YAPGTFISDYXIAXDKIHQQDFVNWLLAQKGKKNDWKHNITQ (A5c at 11; A6c at 14; C-terminal free acid) [(Pro^3, A5c^11, A6c^14)hGIP(1-42)-OH]	648 nM
YXEGTFISDYXIAXDKIHQQDFVNWLLAQKGKKNDWKHNITQ (Aib at 2 and 11; Nle at 14; C-terminal free acid) [(Aib^2, 11, Nle^14)hGIP(1-42)-OH]	0.29 nM
YXEGTFISDYXIAXDKIHQQDFVNWLLAQKGKKNDWKHNITQ (Aib at 2; A5c at 11; Nle at 14; C-terminal free acid) [(Aib^2, A5c^11, Nle^14)hGIP(1-42)-OH]	0.43 nM
YXEGTFISDYSXAMDKIHQQDFVNWLLAQKGKKNDWKHNITQ (Aib at 2 and 12; C-terminal free acid) [(Aib^2, 12)hGIP(1-42)-OH]	4.98 nM

Binder	Ki
YAPGTFISDYSIAXDKIHQQDFVNWLLAQKGKKNDWKHNITQ (A6c at 14; C-terminal free acid) [(Pro^3, A6c^14)hGIP(1-42)-OH]	214 nM
YAXGTFISDYXIAMDKIHQQDFVNWLLAQKGKKNDWKHNITQ (Tic at 3; A5c at 11; C-terminal free acid) [(Tic^3, A5c^11)hGIP(1-42)-OH]	503 nM
YXEGTFXSDYSIAXDKIHQQDFVNWLLAQKGKKNDWKHNITQ (Aib at 2; A5c at 7 and 14; C-terminal free acid) [(Aib^2, A5c^7, 14)hGIP(1-42)-OH]	0.22 nM
YXEGTFXSDYSIAXDKIHQQDFVNWLLAQKGKKNDWKHNITQ (Aib at 2; A6c at 7 and 14; C-terminal free acid) [(Aib^2, A6c^7, 14)hGIP(1-42)-OH]	0.83 nM
YXEGTFISDYSIAXDKIHQQDFVNWLLAQKGKKNDWKHNITQ (Aib at 2; A6c at 14; C-terminal free acid) [(Aib^2, A6c^14)hGIP(1-42)-OH]	0.07 nM
YXEGTFISDYSXAMDKIHQQDFVNWLLAQKGKKNDWKHNITQ (Aib at 2; A5c at 12; C-terminal free acid) [(Aib^2, A5c^12)hGIP(1-42)-OH]	1.65 nM
YXEGTFISDYXIAMDKIHQQDFVNWLLAQKGKKNDWKHNITQ (Aib at 2; A5c at 11; C-terminal free acid) [(Aib^2, A5c^11)hGIP(1-42)-OH]	0.08 nM
YXEGTFISDYXIAXDKIHQQDFVNWLLAQKGKKNDWKHNITQ (Aib at 2; A5c at 11; A6c at 14; C-terminal free acid) [(Aib^2, A5c^11, A6c^14)hGIP(1-42)-OH]	0.18 nM
YXEGTFXSDYSIAXDKIHQQDFVNWLLAQKGKKNDWKHNITQ (Aib at 2; A5c at 7; A6c at 14; C-terminal free acid) [(Aib^2, A5c^7, A6c^14)hGIP(1-42)-OH]	0.63 nM
YAXGTFISDYSIAXDKIHQQDFVNWLLAQKGKKNDWKHNITQ (4Hyp at 3; A6c at 14; C-terminal free acid) [(4Hyp^3, A6c^14)hGIP(1-42)-OH]	910 nM
YAPGTFISDYSIXXDKIHQQDFVNWLLAQKGKKNDWKHNITQ (Aib at 13; Nle at 14; C-terminal free acid) [(Pro^3, Aib^13, Nle^14)hGIP(1-42)-OH]	667 nM
Y[Aib]EGTF[Ac6c]SDYSIAMDKIHQQDFVNWLLAQKGKKNDWKHNITQQ-OH [(Aib^2, A6c^7, Gln^43)hGIP(1-43)-OH]	0.94 nM
YXEGTFISDYSIXXDKIHQQDFVNWLLAQK (Aib at 2 and 13; Nle at 14; C-terminal amide) [(Aib^2, 13, Nle^14)hGIP(1-30)-NH2]	0.09 nM
Y[Aib]PGTFISDYSI[Aib][Nle]DKIHQQDFVNWLLAQK-NH2 [(Aib^2, 13, Pro^3, Nle^14)hGIP(1-30)-NH2]	0.07 nM
YXEGTFXSDYSIAXDKIHQQDFVNWLLAQK (Aib at 2; A6c at 7 and 14; C-terminal amide) [(Aib^2, A6c^7, 14)hGIP(1-30)-NH2]	1.19 nM
YXEGTFXSDYSIAMDKIHQQDFVNWLLAQK (Aib at 2; A6c at 7; C-terminal amide) [(Aib^2, A6c^7)hGIP(1-30)-NH2]	0.03 nM
YXEGTFISDYXIAXDKIHQQDFVNWLLAQK (Aib at 2; A5c at 11; Nle at 14; C-terminal amide) [(Aib^2, A5c^11, Nle^14)hGIP(1-30)-NH2]	0.16 nM
Y[Aib]EGTF[Ac5c]SDYSIAMDKIHQQDFVNWLLAQKGKKNDWKHNITQ-OH [(Aib^2, A5c^7)hGIP(1-42)-OH]	0.41 nM
Y[Aib]EGTF[Ac5c]SDYSIA[Nle]DKIHQQDFVNWLLAQKGKKNDWKHNITQ-OH [(Aib^2, A5c^7, Nle^14)hGIP(1-42)-OH]	0.69 nM
Y[Aib]EG[Ac5c]FISDYSIAMDKIHQQDFVNWLLAQKGKKNDWKHNITQ-OH [(Aib^2, A5c^5)hGIP(1-42)-OH]	2.26 nM
Y[Aib]EGTF[Ac6c]SDYSIAMDKIHQQDFVNWLLAQKGKKNDWKHNITQ-OH [(Aib^2, A6c^7)hGIP(1-42)-OH]	0.3 nM
YAPGTFISDYXIAMDKIHQQDFVNWLLAQK (A5c at 11; C-terminal amide) [(Pro^3, A5c^11)hGIP(1-30)-NH2]	65.8 nM
YXEGTFISDYSIXMDKIHQQDFVNWLLAQK (Aib at 2 and 13; C-terminal amide) [(Aib^2, 13)hGIP(1-30)-NH2]	0.33 nM
YAEGTFISDYXIAMDKIHQQDFVNWLLAQKGKKNDWKHNITQH (D-Ala at 2; A5c at 11; C-terminal free acid, X stands for the non-natural residue) [(D-Ala^2, A5c^11, His^43)hGIP(1-43)-OH]	0.56 nM
Y[Aib]EGTF[Ac6c]SDYSIA[Nle]DKIHQQDFVNWLLAQKGKKNDWKHNITQ-OH [(Aib^2, A6c^7, Nle^14)hGIP(1-42)-OH]	0.45 nM
[Orn](Myristoyl)AEGTF[Ac6c]SDYSIAMDKIHQQDFVNWLLAQKGKKNDWKHNITQ-OH [[Orn^1(N-C(O)-(CH2)12-CH3), A6c^7]hGIP(1-42)-OH]	21.5 nM
